Where two headings read alike, the source gives them in different places.
Key:
[1] = biological target: T1, oligomerized biotinylated synthetic human Aβ1-42 peptide (human, UniProt P05067 672-713, biotinylated (position not given))
[2] = biological target: T1, oligomerized biotinylated synthetic …; remark: listed apart in the source

B1: human LilrB2 (leukocyte immunoglobulin-like receptor B2) expressed on HEK293 cells (receptor, UniProt Q8N423 22-597, looked up)
chain: QTGTIPKPTLWAEPDSVITQGSPVTLSCQGSLEAQEYRLYREKKSASWITRIRPELVKNGQFHIPSITWEHTGRYGCQYYSRARWSELSDPLVLVMTGAYPKPTLSAQPSPVVTSGGRVTLQCESQVAFGGFILCKEGEDEHPQCLNSQPHARGSSRAIFSVGPVSPNRRWSHRCYGYDLNSPYVWSSPSDLLELLVPGVSKKPSLSVQPGPVMAPGESLTLQCVSDVGYDRFVLYKEGERDLRQLPGRQPQAGLSQANFTLGPVSRSYGGQYRCYGAHNLSSECSAPSDPLDILITGQIRGTPFISVQPGPTVASGENVTLLCQSWRQFHTFLLTKAGAADAPLRLRSIHEYPKYQAEFPMSPVTSAHAGTYRCYGSLNSDPYLLSHPSEPLELVVSGPSMGSSPPPTGPISTPGPEDQPLTPTGSDPQSGLGRHLGVVIGILVAVVLLLLLLLLLFLILRHRRQGKHWTSTQRKADFQHPAGAVGPEPTDRGLQWRSSPAADAQEENLYAAVKDTQPEDGVEMDTRAAASEAPQDVTYAQLHSLTLRRKATEPPPSQEREPPAEPSIYATLAIH
Kd [1]: 250 nM
Kd [2]: 206 ± 65 nM
